{
  "source": "patent US20240228562A1",
  "about": "“NOVEL LIPOCALIN MUTEINS SPECIFIC FOR CONNECTIVE TISSUE GROWTH FACTOR (CTGF)” (PIERIS PHARMACEUTICALS GMBH, priority 2021, published 2024)",
  "key": {"Mouse lung PK": {"assay": "Mouse lung PK", "format": "in vivo", "details": "mice", "description": "The lipocalin mutein (100 μg/mouse) was oropharyngeally administered to mice, and exposure in different compartments was measured after 2, 4, 8 and 24 h by ELISA (FIG. 7A). 100 μg of the antibody were administered to mice via intravenous infusion, and exposure was measured after 1, 8, 24 and 96 h by ELISA (FIG. 7B)."}, "CTGF": {"biological_target": "T1, CTGF (Homo sapiens, UniProt P29279)", "T1 sequence (P29279 27-349)": "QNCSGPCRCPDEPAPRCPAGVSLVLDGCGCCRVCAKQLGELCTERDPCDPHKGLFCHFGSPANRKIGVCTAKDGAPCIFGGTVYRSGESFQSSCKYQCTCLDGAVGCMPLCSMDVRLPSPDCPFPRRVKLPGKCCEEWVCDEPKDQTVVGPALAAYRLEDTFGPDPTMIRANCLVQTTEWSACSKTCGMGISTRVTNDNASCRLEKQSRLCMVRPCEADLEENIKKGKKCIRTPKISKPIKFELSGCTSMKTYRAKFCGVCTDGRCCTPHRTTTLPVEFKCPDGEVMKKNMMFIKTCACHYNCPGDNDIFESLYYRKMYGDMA", "assay": "ELISA-based competition assay with anti-CTGF antibody", "format": "binding", "details": "data not shown"}, "[1]": {"assay": "Nebulization behavior, droplet size distribution by laser diffraction", "format": "physicochemical", "details": "vibrating mesh nebulizer, Malvern Spraytec", "description": "The suitability of the CTGF-targeting lipocalin muteins and fusion proteins disclosed herein for administration via inhalation was tested using a commercially available vibrating mesh nebulizer (Philips InnoSpire Go®). Droplet size distribution was characterized by laser diffraction using the nebulizer in conjunction with Malvern Spraytec and inhalation cell.\nRepresentative data for the exemplary CTGF-targeting lipocalin mutein of SEQ ID NO: 23 (A) and for the fusion protein of SEQ ID NO: 74 (B) are shown in FIG. 5 and below Table 10. […] Nebulization of the lipocalin muteins and fusion proteins had no negative impact on the stability and activity of the molecules (data not shown)."}, "[2]": {"tested_on": "CCL-206 lung fibroblasts co-cultured with primary murine Epcam-positive epithelial progenitor cells", "assay": "Lung organoid formation model", "format": "cell-based", "details": "14 days treatment; nintedanib 100 nM; SEQ ID NO: 74 at 100 nM", "description": "The effect of CTGF-targeting lipocalin muteins was analyzed using an organoid model for lung regeneration. In this model, CCL-206 lung fibroblasts are co-cultured with freshly isolated primary murine Epcam-positive epithelial progenitor cells, and the number of formed organoids is analyzed after 14 days. TGF-b1 pre-treatment of CCL-206 fibroblasts leads to an impaired organoid formation and resembles an impairment of lung regeneration as for example observed in lung disease, such as IPF. The impaired formation of organoids can be rescued by treatment with different drugs, such as nintedanib, which is used as a positive control in this model. […] Analysis of organoid numbers confirmed the impairment of organoid formation by TGF-b1 stimulation."}, "[3]": {"details": "mutein 100 μg oropharyngeal, antibody 100 μg intravenous, compartment of administration set to 100%"}},
  "note": "Marks after values point to notes of the source that are not given here.",
  "data": [
    {"molecule": "SEQ ID NO: 23: optimized CTGF-binding hNGAL lipocalin mutein (protein, lipocalin mutein) QDSTSDLIPAPPLSKVPLQQNFQDNQFQGKWYVVGVAGNAILRPDKQPAKMFATIYELKEDKSYDVTSVRFEAKSCKYTIKTFVPGSQPGEFTSGQIKSAPGQTSTLVRVVSTNYNQHAMVFFKHVSQNREIFVITLYGRTKELTSELKENFIRFSKSLGLPENHIVFPVPIDQCIDG", "values": [
      {"measurement": "Exposure in the lung", "setting": "Mouse lung PK; 100 μg/mouse oropharyngeal, 2-24 h, ELISA", "result": "significant exposure in the lung over 24 h"},
      {"measurement": "Lung exposure compared to plasma", "setting": "Mouse lung PK; [3]", "result": "100* %"},
      {"measurement": "Plasma exposure compared to lung", "setting": "Mouse lung PK; [3]", "result": "approx. 1%"},
      {"measurement": "Plasma exposure compared to lung", "setting": "Mouse lung PK; mutein 100 μg oropharyngeal, antibody 100 μg intravenous, compartment of administration set to 100%, listed as 23", "result": 0.9, "unit": "%"},
      {"measurement": "Competition with antibody of SEQ ID NOs: 60 and 61 for binding to CTGF", "setting": "CTGF", "result": "competed with the antibody"},
      {"measurement": "% V < 1 μm", "setting": "[1]", "result": 1.874, "unit": "%"},
      {"measurement": "% V < 5 μm", "setting": "[1]", "result": 68.97, "unit": "%"},
      {"measurement": "% V < 10 μm", "setting": "[1]", "result": 93.55, "unit": "%"},
      {"measurement": "Dv10", "setting": "[1]", "result": 1.4, "unit": "μm"},
      {"measurement": "Dv50", "setting": "[1]", "result": 3.5, "unit": "μm"},
      {"measurement": "Dv90", "setting": "[1]", "result": 8.6, "unit": "μm"},
      {"measurement": "Dv10", "setting": "[1]; listed as 23", "result": 1.471, "unit": "μm"},
      {"measurement": "Dv50", "setting": "[1]; listed as 23", "result": 3.484, "unit": "μm"},
      {"measurement": "Dv90", "setting": "[1]; listed as 23", "result": 8.622, "unit": "μm"}
    ]},
    {"molecule": "SEQ ID NO: 74: fusion protein comprising two CTGF-binding lipocalin muteins (protein, fusion protein) QDSTSDLIPAPPLSKVPLQQNFQDNQFQGKWYVVGLAGNAILREDKQPAKMFATIYELKEDKSYDVTSVRFEAKSCKYTIKTFVPGSQPGEFTAGYIKSAPGQTSTLVRVVSTNYNQHAMVFFKHVTQNREIFVITLYGRTKELTSELKENFIRFSKSLGLPENHIVFPVPIDQCIDGGGGGSGGGGSGGGGSQDSTSDLIPAPPLSKVPLQQNFQDNQFQGKWYVVGWAGNVKLREDKQPQKMSATIYELKEDKSYDVTEVVFEQKKCHYIIKTFVPGSQPGEFTAGDIKSPPGYTSSLVRVVSTNYNQHAMVFFKKVSQNREFFWITLYGRTKELTSELKENFIRFSKSLGLPENHIVFPVPIDQCIDG", "values": [
      {"measurement": "Effect on TGF-b1 impaired organoid formation", "setting": "[2]", "result": "even stronger trend for improved organoid formation"},
      {"measurement": "% V < 1 μm", "setting": "[1]", "result": 0.984, "unit": "%"},
      {"measurement": "% V < 5 μm", "setting": "[1]", "result": 54.81, "unit": "%"},
      {"measurement": "% V < 10 μm", "setting": "[1]", "result": 88.4, "unit": "%"},
      {"measurement": "Dv10", "setting": "[1]", "result": 1.8, "unit": "μm"},
      {"measurement": "Dv50", "setting": "[1]", "result": 4.6, "unit": "μm"},
      {"measurement": "Dv90", "setting": "[1]", "result": 10.5, "unit": "μm"},
      {"measurement": "Dv10", "setting": "[1]; listed as 74", "result": 1.824, "unit": "μm"},
      {"measurement": "Dv50", "setting": "[1]; listed as 74", "result": 4.589, "unit": "μm"}
    ]}
  ]
}
